Measured values: US20140256916A1 (Sanofi, published 2014)
Read-outs that look alike come from different tables or passages of the source.

Key:
[1] = target: T1, CA6, tumor-associated MUC1-sialoglycotope (human, UniProt P15941 24-1255, carries the CA6 sialoglycotope (sialylated glycan epitope); sites not stated); experiment: method not given; presumably flow cytometry on WISH (CA6+) cells as for the B-Fabs
[2] = target: T1, CA6, tumor-associated …; experiment: flow cytometry (FACS) on WISH cells (CA6+)
[3] = target: T1, CA6, tumor-associated …; experiment: flow cytometry (FACS) on WISH cells (CA6+); remark: listed apart in the source
[4] = target: T1, CA6, tumor-associated …; experiment: flow cytometry (FACS) on WISH cells (CA6+); remark: listed apart in the source

T1 sequence (P15941 24-1097, chain 1 of 2): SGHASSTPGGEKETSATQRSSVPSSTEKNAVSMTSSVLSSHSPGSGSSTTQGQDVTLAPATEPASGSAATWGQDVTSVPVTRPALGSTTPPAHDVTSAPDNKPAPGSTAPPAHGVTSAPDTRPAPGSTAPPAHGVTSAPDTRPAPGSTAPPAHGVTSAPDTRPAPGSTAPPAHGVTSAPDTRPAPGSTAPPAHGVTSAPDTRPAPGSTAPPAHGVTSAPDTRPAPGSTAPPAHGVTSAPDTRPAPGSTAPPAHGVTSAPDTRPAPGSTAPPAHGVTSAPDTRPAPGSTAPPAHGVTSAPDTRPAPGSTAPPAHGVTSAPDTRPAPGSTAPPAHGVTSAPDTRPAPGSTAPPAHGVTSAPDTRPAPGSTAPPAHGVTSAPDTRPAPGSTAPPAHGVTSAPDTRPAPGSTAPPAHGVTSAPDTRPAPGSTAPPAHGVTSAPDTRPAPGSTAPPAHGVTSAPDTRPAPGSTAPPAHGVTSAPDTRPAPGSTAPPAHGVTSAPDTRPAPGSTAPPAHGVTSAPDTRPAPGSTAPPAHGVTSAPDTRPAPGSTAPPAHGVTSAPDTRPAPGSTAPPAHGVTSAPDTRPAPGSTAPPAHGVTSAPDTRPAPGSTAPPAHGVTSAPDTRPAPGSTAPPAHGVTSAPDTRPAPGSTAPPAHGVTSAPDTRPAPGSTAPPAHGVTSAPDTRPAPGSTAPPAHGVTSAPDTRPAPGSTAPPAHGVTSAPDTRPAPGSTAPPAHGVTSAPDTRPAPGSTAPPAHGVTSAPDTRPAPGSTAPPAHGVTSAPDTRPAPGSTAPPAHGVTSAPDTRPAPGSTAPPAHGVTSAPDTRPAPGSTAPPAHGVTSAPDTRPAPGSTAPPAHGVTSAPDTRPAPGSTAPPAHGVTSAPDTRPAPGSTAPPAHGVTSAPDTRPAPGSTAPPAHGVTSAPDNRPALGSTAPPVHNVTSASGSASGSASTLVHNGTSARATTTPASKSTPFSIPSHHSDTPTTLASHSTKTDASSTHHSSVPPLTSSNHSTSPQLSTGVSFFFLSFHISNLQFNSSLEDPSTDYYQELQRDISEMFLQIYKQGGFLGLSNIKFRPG
T1 sequence (P15941 1098-1255, chain 2 of 2): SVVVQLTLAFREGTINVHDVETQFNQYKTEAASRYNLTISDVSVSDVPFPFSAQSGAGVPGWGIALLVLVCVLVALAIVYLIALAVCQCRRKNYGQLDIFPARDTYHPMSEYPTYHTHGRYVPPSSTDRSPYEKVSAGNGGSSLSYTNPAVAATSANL

Kd [1]: 2 nM | EC50 (read off the curve) [2]: ~2 nM | EC50 (read off the curve) [3]: ~2 nM | EC50 (read off the curve) [4]: ~2 nM
B1: Control DS6 monoclonal antibody (antibody, V domains shown)
VH: EAQLVQSGAEVVKPGASVKMSCKASGYTFTSYNMHWVKQTPGQGLEWIGYIYPGNGATNYNQKFQGKATLTADPSSSTAYMQISSLTSEDSAVYFCARGDSVPFAYWGQGTLVTVSA
VL: EIVLTQSPATMSASPGERVTITCSAHSSVSFMHWFQQKPGTSPKLWIYSTSSLASGVPARFGGSGSGTSYSLTISSMEAEDAATYYCQQRSSFPLTFGAGTKLELK
